In patent US20230265151A1, “GIP/GLP1 CO-AGONIST COMPOUNDS” (priority 2020, published 2023):
Changes are numbered by the printed parent chain.

T1: human GIP receptor (human, UniProt P48546 22-466)
T1 construct: whole, on cells; also called hGIPR; human glucose-dependent insulinotropic polypeptide receptor
T1 sequence (looked up): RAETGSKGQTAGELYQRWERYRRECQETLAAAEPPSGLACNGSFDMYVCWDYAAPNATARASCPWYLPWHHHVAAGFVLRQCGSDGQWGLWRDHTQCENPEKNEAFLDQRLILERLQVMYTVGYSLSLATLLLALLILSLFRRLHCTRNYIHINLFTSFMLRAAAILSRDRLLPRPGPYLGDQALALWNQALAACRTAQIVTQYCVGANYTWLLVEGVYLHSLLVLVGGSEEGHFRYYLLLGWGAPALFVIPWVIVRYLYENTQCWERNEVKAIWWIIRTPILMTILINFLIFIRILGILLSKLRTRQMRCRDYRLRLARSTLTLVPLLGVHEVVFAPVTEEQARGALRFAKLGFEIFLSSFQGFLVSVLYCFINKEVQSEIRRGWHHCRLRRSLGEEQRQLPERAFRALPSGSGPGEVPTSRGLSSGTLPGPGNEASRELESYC

B1: Y-Aib-EGT-αMeF(2F)-TSD-4Pal-SI-αMeL-LD-Orn-IAQ-Aib-K((2-[2-(2-Amino-ethoxy)-ethoxy]-acetyl)2-(γ-Glu)-CO-(CH2)12-CO2H)FI-(D-Glu)-αMeY-LIEGGPSSGAPPPSK((2-[2-(2-Am … (peptide)
peptide: YXEGTXTSDXSIXLDXIAQXKFIXXLIEGGPSSGAPPPSK
modifications: Aib2, αMeF(2F)6, 4Pal10, αMeL13, Orn16, Aib20, D-Glu24, αMeY25; acylated K21, K40 (groups as in name); C-terminal amide
B2: Y-Aib-EGT-αMeF(2F)-TSD-4Pal-SI-αMeL-LD-Orn-IAQ-Aib-K((2-[2-(2-Amino-ethoxy)-ethoxy]-acetyl)2-(γ-Glu)-(4-(4-tert-butylphenyl)butanoyl))FI-(D-Glu)-αMeY-LIEGGPSSGA … (peptide)
peptide: B1 peptide
modifications: Aib2, αMeF(2F)6, 4Pal10, αMeL13, Orn16, Aib20, D-Glu24, αMeY25; acylated K21, K40 (groups as in name); C-terminal amide
B3: Y-Aib-EGT-αMeF(2F)-TSD-4Pal-SI-αMeL-LD-Orn-K((2-[2-(2-Amino-ethoxy)-ethoxy]-acetyl)2-(γ-Glu)-CO-(CH2)10-CH3)AQ-Aib-EFI-(D-Glu)-αMeY-LIEGGP S SGAPPP … (peptide)
peptide: B1 peptide with I17K, K21E
modifications: Aib2, αMeF(2F)6, 4Pal10, αMeL13, Orn16, Aib20, D-Glu24, αMeY25; acylated K17, K40 (groups as in name); C-terminal amide
B4: Y-Aib-EGT-αMeF(2F)-TSD-4Pal-SI-αMeL-LD-Orn-K((2-[2-(2-Amino-ethoxy)-ethoxy]-acetyl)2-(γ-Glu)-(4-(4-tert-butylphenyl)butanoyl))AQ-Aib-EFI-(D-Glu)-αMeY-LIEGGPSSGA … (peptide)
peptide: B1 peptide with I17K, K21E
modifications: Aib2, αMeF(2F)6, 4Pal10, αMeL13, Orn16, Aib20, D-Glu24, αMeY25; acylated K17, K40 (groups as in name); C-terminal amide
B5: Y-Aib-EGT-αMeF(2F)-TSD-4Pal-SI-αMeL-LD-Orn-K((2-[2-(2-Amino-ethoxy)-ethoxy]-acetyl)-(γ-Glu)-(4-(4-tert-butylphenyl)butanoyl))AQ-Aib-EFI-(D-Glu)-αMeY-LIEGGPSSGAP … (peptide)
peptide: B1 peptide with I17K, K21E
modifications: Aib2, αMeF(2F)6, 4Pal10, αMeL13, Orn16, Aib20, D-Glu24, αMeY25; acylated K17, K40 (groups as in name); C-terminal amide
B6: Y-Aib-EGT-αMeF(2F)-TSD-4Pal-SI-αMeL-LD-Orn-IAQ-Aib-K((2-[2-(2-Amino-ethoxy)-ethoxy]-acetyl)2-CO-(CH2)12-CO2H)FI-(D-Glu)-αMeY-LIEGGPSSGAPPP … (peptide)
peptide: B1 peptide
modifications: Aib2, αMeF(2F)6, 4Pal10, αMeL13, Orn16, Aib20, D-Glu24, αMeY25; acylated K21, K40 (groups as in name); C-terminal amide
B7: Y-Aib-EGT-αMeF(2F)-TSD-4Pal-SI-αMeL-LD-Orn-K((γ-Glu)-(2-[2-(2-Amino-ethoxy)-ethoxy]-acetyl)-CO-(CH2)12-CO2H)AQ-Aib-EFI-(D-Glu)-αMeY-LIEGGK((γ-Glu)-(2-[2-(2-Amin … (peptide)
peptide: YXEGTXTSDXSIXLDXKAQXEFIXXLIEGGKSSGAPPPS
modifications: Aib2, αMeF(2F)6, 4Pal10, αMeL13, Orn16, Aib20, D-Glu24, αMeY25; acylated K17, K31 (groups as in name); C-terminal amide
B8: Y-Aib-EGT-αMeF(2F)-TSD-4Pal-SI-αMeL-LD-Orn-IAQ-Aib-K((2-[2-(2-Amino-ethoxy)-ethoxy]-acetyl)2-(γ-Glu)-(4-(4-tert-butylphenyl)butanoyl))FI-(D-Glu)-αMeY-LIK((2-[2- … (peptide)
peptide: B7 peptide with K17I, E21K, E28K, K31P
modifications: Aib2, αMeF(2F)6, 4Pal10, αMeL13, Orn16, Aib20, D-Glu24, αMeY25; acylated K21, K28 (groups as in name); C-terminal amide
B9: Y-Aib-EGT-αMeF(2F)-TSD-4Pal-SI-αMeL-LD-Orn-K((2-[2-(2-Amino-ethoxy)-ethoxy]-acetyl)-(γ-Glu)-(4-(4-tert-butylphenyl)butanoyl))AQ-Aib-EFI-(D-Glu)-αMeY-LIK((2-[2-( … (peptide)
peptide: B7 peptide with E28K, K31P
modifications: Aib2, αMeF(2F)6, 4Pal10, αMeL13, Orn16, Aib20, D-Glu24, αMeY25; acylated K17, K28 (groups as in name); C-terminal amide
B10: Y-Aib-EGT-αMeF(2F)-TSD-4Pal-SI-αMeL-LD-Orn-K((2-[2-(2-Amino-ethoxy)-ethoxy]-acetyl)2-(εK)-CO-(CH2)12-CO2H)AQ-Aib-EFI-(D-Glu)-αMeY-LIEGGK((2-[2-(2-Amino-ethoxy)- … (peptide)
peptide: B7 peptide
modifications: Aib2, αMeF(2F)6, 4Pal10, αMeL13, Orn16, K17(Z1), Aib20, D-Glu24, αMeY25, K31(Z1), C-term NH2; Z1=AEEA2-(εK)-CO-(CH2)12-CO2H

What was measured:
human glucagon receptor [1] = biological target: human glucagon receptor (human, UniProt P47871 26-477); test: cell-based or functional assay
human GLP-1 receptor = biological target: T2, human GLP-1 receptor (human, UniProt P43220 24-463); test: SPA competition vs [125I]-GLP-1, hGLP-1R membranes
T2 construct: whole, on cells; also called hGLP-1R; human glucagon-like peptide-1 receptor
Protocol: The binding buffer contains 25 mM HEPES, pH 7.4, 2.5 mM CaCl₂, 1 mM MgCl₂, 0.1% (w/v) bacitracin, 0.003% (w/v) TWEEN®-20, and Roche Complete™ Protease Inhibitors without EDTA.
(§1) Data are analyzed using four-parameter (curve maximum, curve minimum, IC₅₀, Hill slope) nonlinear regression routines (Genedata Screener, version 12.0.4, Genedata AG, Basal, Switzerland). […] Values for Kᵢ are reported as the geometric mean, with error expressed as the standard error of the mean (SEM) and n is equal to the number of independent replicates (determined in assays performed on different days). Geometric Means are calculated as follows: […]

human glucagon receptor [2] = biological target: T3, human glucagon receptor (human, UniProt P47871 26-477); test: SPA competition vs [125I]-Gcg, hGcgR membranes
T3 construct: whole, on cells; also called hGCGR; hGcgR
Protocol: The binding buffer contains 25 mM 4-(2-hydroxyethyl)-1-piperazineethanesulfonic acid (HEPES), pH 7.4, 2.5 mM CaCl₂, 1 mM MgCh, 0.1% (w/v) bacitracin (Research Products), 0.003% (w/v) Polyoxyethylenesorbitan monolaurate (TWEEN®-20), and Roche Complete™ Protease Inhibitors without EDTA. […] Plates are sealed and mixed on a plate shaker (setting 6) for 1 minute and read with a PerkinElmer Trilux MicroBeta® scintillation counter after 12 hours of incubation/settling time at room temperature.
Data are analyzed using four-parameter (curve maximum, curve minimum, IC₅₀, Hill slope) nonlinear regression routines (Genedata Screener, version 12.0.4, Genedata AG, Basal, Switzerland). […] Values for Kᵢ are reported as the geometric mean, with error expressed as the standard error of the mean (SEM) and n is equal to the number of independent replicates (determined in assays performed on different days).
T3 sequence (P47871 26-477): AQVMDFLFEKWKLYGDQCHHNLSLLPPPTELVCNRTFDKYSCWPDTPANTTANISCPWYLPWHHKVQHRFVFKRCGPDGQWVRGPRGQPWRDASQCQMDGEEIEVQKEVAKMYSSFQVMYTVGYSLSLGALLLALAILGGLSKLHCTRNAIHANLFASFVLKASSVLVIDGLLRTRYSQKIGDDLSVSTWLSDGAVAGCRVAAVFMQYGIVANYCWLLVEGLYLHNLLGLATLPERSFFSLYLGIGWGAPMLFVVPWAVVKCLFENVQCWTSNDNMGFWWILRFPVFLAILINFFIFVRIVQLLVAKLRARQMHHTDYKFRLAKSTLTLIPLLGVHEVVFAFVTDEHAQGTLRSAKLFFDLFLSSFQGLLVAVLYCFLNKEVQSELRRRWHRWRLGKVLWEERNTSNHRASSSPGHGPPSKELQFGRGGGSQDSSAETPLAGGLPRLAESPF

human GIP receptor = biological target: T1, human GIP receptor; test: SPA competition vs [125I]-GIP, hGIPR membranes
Protocol: The binding buffer contains 25 mM HEPES, pH 7.4, 2.5 mM CaCl₂, 1 mM MgCl₂, 0.1% (w/v) bacitracin, 0.003% (w/v) TWEEN®-20, and Roche Complete™ Protease Inhibitors without EDTA. […] Plates are sealed and mixed on a plate shaker (setting 6) for 1 minute and read with a PerkinElmer Trilux MicroBeta® scintillation counter after 2.5 to 12 hours of incubation/settling time at room temperature.
as §1

Row | Binder | cAMP EC50 (1.0% HSA) (human glucagon receptor [1]) [µM] | other results
1 | B1 | > 9.95 | –
2 | B2 | > 9.95 | –
3 | B3 | > 9.95 | –
4 | B4 | > 9.95 | –
5 | B5 | > 9.95 | –
6 | B6 | > 9.95 | –
7 | B7 | > 9.95 | –
8 | B8 | > 9.95 | –
9 | B9 | > 9.95 | –
10 | B10 | – | Ki (human GLP-1 receptor): 0.00134 µM; Ki (human glucagon receptor [2]): 0.264 µM; Ki (human GIP receptor): 0.000117 µM
